Measured values: the supplement of paper PMC12764529
± gives the half width of the 95% confidence interval.

Assay: folding stability dG unfold from chymotrypsin proteolysis; higher = more stable
Method: (§1)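 Folding stability of de novo designed mini-proteins (<80 aa, no Cys; designed by TrROS, TrMRF, ProteinMPNN and the joint model) was measured by cDNA display proteolysis with trypsin and chymotrypsin. Each protease was used at 11 concentrations in a threefold dilution series plus a no-protease condition. K50 was inferred by Bayesian fitting of sequencing counts, and dG unfold was derived against a sequence-predicted unfolded-state K50 (Tsuboyama et al. method). Sequences shown include variable-length N-terminal GS-type padding (SAGGSAGG...) inside a display construct carrying a PA tag. Rows were kept only if the AF2 dimer inter-PAE was >15, to exclude likely homo-oligomers.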

Sequence	folding stability dG unfold
NYRVEIDDMELFPAPPGQEIRIPLKVEDDGQEHELEEIQVNPDDGYITMKVKIEPDGEPKEFTITIPIPPGS [r1_47_TrROS]	0.158 ± 0.52 kcal/mol
SAGGSAGGSAGGNIVDRLQERFPNFPPKSVDVKMNPNGNRSVDIKFDGPPEMRDALLELSAGGSAGGSAGGS [r10_1089_TrROS]	0.128 ± 0.059 kcal/mol

Assay: folding stability dG unfold (combined trypsin and chymotrypsin); higher = more stable
Method: as §1

Sequence	folding stability dG unfold
SAGGNLRIRIEMENKDGNKRKIPIPEEEFNRIKESLKNGKPITPEPASWISDYARRNGYDVKIVDIYSAGGS [r8_159_TrROS]	-0.35 ± 0.33 kcal/mol
SAGGSAGGSAMPERRAAEAAAAPPPVPKVVITSPGSEEEARRIEEELRAAPGVEEVTVTVVPRLSAGGSAGG [r6_285_JUSTAS]	0.0774 ± 0.16 kcal/mol
SAGGSAGGSAGVRIPPGYLVRIKFPGNGEREIPIDTPEIEIPGIENVTIEVYPLKKGEPISAGGSAGGSAGG [r11_43_TrROS]	0.167 ± 0.2 kcal/mol
SAGGSAGGSAMLTLRFELPDGSERELRLPGVTPEEAAALAAELARREGVARVEVYPPGVERSAGGSAGGSAG [r3_160_JUSTAS]	-0.823 ± 0.44 kcal/mol
SAGGSAMSQEEIENKPIEEIAKAILENFPGNTKVEHEFTFKDGSKLRIVVELPEDGEPKIEAEPIGSAGGSA [r15_857_TrMRF]	-0.452 ± 0.56 kcal/mol
SAGGSSYIVKATPAGGPSFEAEATLTSVSSEGDNFTANVEVTFDGKPVTLTFDGDKVGPVVIEPPESAGGSA [r2_319_TrMRF]	-0.0521 ± 0.17 kcal/mol
SAGGSAGGSGMPTRNVPITTPDGKVVTVVERPPERAEIIFPDGSRATIVDPARGYEEITITPESAGGSAGGS [r12_491_JUSTAS]	0.542 ± 0.059 kcal/mol
SAGGSAGGSAPRLVRVRGPDGGERVIPVPPDVLADRIPPDVPVRVPVVREDGRFRFRVERGSAGGSAGGSAG [r3_86_TrMRF]	< -1 kcal/mol
SAGGSAGGSAGMKVIVLPVPPNADRVRITYEKGPTLEIEAREDEPVVIVAPENEFTVEVDSAGGSAGGSAGG [r11_52_TrMRF]	< -1 kcal/mol
SAGVRYLVATGEDGATVVVPVPAETEEEAEEKAEELARELAERFPGARFVPVPVEEPELPPVEALPGVESAG [r5_950_TrMRF]	-0.46 ± 0.57 kcal/mol
SAGGSAGGSAGGGPGFTVLERREDPATGTVTILRRFAFPDGSTALEPRVVPRAPDERLESAGGSAGGSAGGS [r10_605_JUSTAS]	< -1 kcal/mol
SAGGSAGGSAGGGPAKALITSPDGSKAEATVTVDTATGTVTLTVENASLPPDWKLELLGSAGGSAGGSAGGS [r10_306_TrMRF]	0.0987 ± 0.23 kcal/mol
SAGGSAGGSMEKRKLEIEIHLPASEATEEEMEELAEEYAKKNPEADEVTFKFTVEESDKESLESAGGSAGGS [r20_86_JUSTAS]	-0.605 ± 0.33 kcal/mol
SAGPAVAVAPIPALEARPDLKDALVRVVVSPLPDGRVAVDVRPVFVPKPVITPEEARELEELAEKLAASAGG [r19_313_TrMRF]	-0.224 ± 0.13 kcal/mol
SAGGSAGGSAGGSTVTVTSEEEAQEAREALAAERAAAEPGAEPPEAFPVEVEVVPPELRSAGGSAGGSAGGS [r4_498_JUSTAS]	0.0161 ± 0.22 kcal/mol
SAGGSAGGSAKRTIFIPAEDLQKNPDNAEELAQTIAEEFNDNGKEIKIEQHPDGGVVIELKSAGGSAGGSAG [r3_75_TrROS]	< -1 kcal/mol
SAGGSTAEELADQIHKKFMEQGYKITDVDITYNPNNWVMVKATIRNPDDPNQRMKMNIMIPKDEIKSAGGSA [r2_384_TrROS]	0.239 ± 0.29 kcal/mol
SAGGSAGGSAGGPPIIEFPIKGDNPEQAKRFAKEVVDLLPDQNPENVDITTTDGWVRITSAGGSAGGSAGGS [r10_182_TrROS]	< -1 kcal/mol
SAGGDKLGKPLGGKPVTFDISKEELSYNPSNGTWSKSVVTTPRTVFYPPDAEPDPAVFASGAGSVTLASAGG [r13_753_JUSTAS]	-0.184 ± 0.077 kcal/mol
SAGGSEAAPGEKVTITTVTSSVLKTYETPTGTLETESSTSVTTTTVTVPAAAAAAAGVRYSPDPLLSAGGSA [r2_495_JUSTAS]	< -1 kcal/mol
SAGGSSRTISIPVSPSLSPEEVAELIKKEVKKMGEDKEVKVLSVDPSGRIDVLVGDEPITVDASLPSAGGSA [r2_102_JUSTAS]	0.235 ± 0.2 kcal/mol
SAGGMTLDQLKENIKSVEVYPHPDGGYRMRVQIPQPNPDGKPKPREFNIPMPPNDPNMSADNVIDQILSAGG [r13_319_TrROS]	< -1 kcal/mol
SAGGSAGGSAGGPERELTVPITTPDGSGKSISAELGEEELEKLIEENPEWKEAIIEARRESAGGSAGGSAGG [r7_637_JUSTAS]	0.483 ± 0.11 kcal/mol

Sequence	folding stability dG unfold
SAGGSAGGSDKIRKALKELGYPYEIDNIDVNVTKNGNPEIEIKYSPGMPPQDQKRIKRAVIDLSAGGSAGGS [r12_352_TrROS]	-0.469 ± 0.15 kcal/mol
SAGGSAGGSAGGSDPSATLRVTLTPRTTRTRLVTDEDGVERTYTFGGDGTLSVSLLPSGSAGGSAGGSAGGS [r4_162_TrMRF]	0.258 ± 0.091 kcal/mol
SAGGSAGGSAGGMITVNPRGGTATFTTSSGETTTVPASLADQVRVDTGLPDAPVFTAPPASAGGSAGGSAGG [r7_235_JUSTAS]	< -1 kcal/mol
SAGGSMKLKPGDEIWVPENMPEDAIKDEIKEWADNFNIKGIDDIEPPKPGWHRIKVEWPNGRKLTISAGGSA [r2_168_TrROS]	-0.748 ± 0.3 kcal/mol
SAGGSAGGSAGGLHPDQEFAVRLDLDLDLRLGPGADLRVSDVRVGGVRVYDLRTGRWLDSAGGSAGGSAGGS [r10_248_TrMRF]	-0.323 ± 0.25 kcal/mol
SAGPWKIEVEQYDPNGKKEEIEDPEDLLDLAKDLPPNRMVHIKIPNGRETIMFQNPDGNVFVLKIERPESAG [r5_506_TrROS]	-0.374 ± 0.34 kcal/mol
SAGGSAGGMLVPLDDTRVVPLPDGSYAVLVRPADGSELLREFDSLEDAVEWAEATGAGVADLPASAGGSAGG [r6_84_TrMRF]	-0.553 ± 0.34 kcal/mol
SAGGSAGGSAGWNIEPKPEPERDPDGNPQPRMEIKIRVPPPTAEQAQEWAKENGLPVTVYSAGGSAGGSAGG [r17_114_TrROS]	< -1 kcal/mol
SAGGSYMVKVEWRNNNKEMEMTHPFDDPEDALNFAHDLLPNGMELDIEVFDPKEGEPIGTVPFRVDSAGGSA [r2_390_TrROS]	< -1 kcal/mol
SAGGSAGGSGMPRKIASYEEKEEEDGKKTVKVRFPDDGKEITLSPEKAGKITPDSTVPLEELLSAGGSAGGS [r20_3_JUSTAS]	-0.168 ± 0.43 kcal/mol
STRTVPIPIRWDNGRLSPDDIRNAIKKALPPGENVKITEETIQNFWQEWAGKNGKPMTPEDFPIRIEVKKSA [r9_197_TrROS]	-0.198 ± 0.27 kcal/mol
SAGGSAGGSAMPLGVTTSTSTSLLPSNSRLVTETITTPGTTSTTTTLLTPPPGEVLETTTTSSAGGSAGGSA [r18_459_JUSTAS]	0.526 ± 0.09 kcal/mol
SAGGSAGGSNWIEKAINEAMKQHPPGQERKVPIEIYNPNNNKPIGKIPIRIRMDKDGPMEIEISAGGSAGGS [r20_151_TrROS]	0.529 ± 0.074 kcal/mol
SITISPDKVYTLKNVRVGDYEVDGLVAVAGPDGTVYVPADVRPVVVPPPAPPVGLDPVDGGVYDITDPSVSA [r9_603_TrMRF]	< -1 kcal/mol
MPSVTLPVTLVLDTRRPDGRPLTPEQVRALAEAAVRELAEATGVDVEADVTVTPLGPEGRAVVDVVVTVRPS [r1_231_TrMRF]	0.201 ± 0.14 kcal/mol
SAGGSAGGSAGGSSMLTTRPLPGGRTLLRTTLPDGTILVTRYDAAGEPVLETLPPSTPLLSAGGSAGGSAGG [r7_215_JUSTAS]	< -1 kcal/mol
SAGGSAGGSAGSMVEVTYEPDPATGGSRIVTTTRFPDRNTVTVTELDPNAGVPLETVEVESAGGSAGGSAGG [r11_676_JUSTAS]	-0.433 ± 0.089 kcal/mol
SAGGSAGGSAGGKPVKVKVVIPVPDGDEVLVLEVEVEGEGGEEAVRQALEVAAELLREGSAGGSAGGSAGGS [r10_863_TrMRF]	0.0842 ± 0.23 kcal/mol
SAGPEIKIEPRSYDPKKGIFTYSAYVLDYKDGKKEREIEVGTWRYYGPDGTVEPISEEDILQKAKDLLSSAG [r5_909_TrMRF]	0.371 ± 0.18 kcal/mol
SAGGSAGGSAGGMLPFEVLEVTTSTGKGKTTRTVLAREPEGPEVVLTFSPASPEEIERLLSAGGSAGGSAGG [r7_365_JUSTAS]	0.224 ± 0.13 kcal/mol
SMTLVGTTTLPNATVTTYKNETKYIVLTYDPVEAGEPAAVSYVEKYEGNKVVKKKKVAPEEIEKAIEELLSA [r9_57_JUSTAS]	0.247 ± 0.48 kcal/mol
TLSPEEIEAEARARAEAAVAARPDSAADVELDVPVEFPVRTERRDPRSDRWSRSLSTVRLRLRLRLARGAGS [r1_90_JUSTAS]	-0.468 ± 0.24 kcal/mol
